Data: the supplement of paper PMC12764529
± gives the half width of the 95% confidence interval.

Tests used:
[1] = folding stability dG unfold from chymotrypsin proteolysis; higher = more stable
Procedure, shortened: (§1)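 K50 was inferred by Bayesian fitting of sequencing counts obtained after protease digestion of designed mini-proteins. Unfolding free energy was derived by comparison with a sequence-predicted unfolded-state K50 and a shared folded-state K50, for each protease or both combined. The mini-proteins were under 80 residues, had no cysteine, were carried in a PA-tagged cDNA display construct, and were kept only if AlphaFold2 dimer inter-PAE exceeded 15.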

[2] = folding stability dG unfold from trypsin proteolysis; higher = more stable
Procedure, shortened: as §1

[3] = folding stability dG unfold (combined trypsin and chymotrypsin); higher = more stable
Procedure, shortened: as §1

| Sequence | folding stability dG unfold [1] [kcal/mol] | folding stability dG unfold [2] [kcal/mol] | folding stability dG unfold [3] [kcal/mol] |
| --- | --- | --- | --- |
| SAGGSAGGIKPGETVLIVFKDKPEILVFPPGMSEEERKAFPGAKFILVKVEKPELTEEELKALESAGGSAGG [r6_830_TrROS_Hall] | -0.275 ± 0.18 | -0.623 ± 0.13 | -0.232 ± 0.16 |
| SAGGSAGGIRINPENGQIYFPLENGKAKSVPFKPGQEREIPNGWRITIKPDPPGPWEIEVKPLDSAGGSAGG [r6_296_TrROS] | -0.578 ± 0.61 | -0.509 ± 0.42 | -0.499 ± 0.22 |
| SAGGSAGGKAKIKKIEVELNEDGTLKVTAYDEETNEKITLEVKLPKPKPVYFDEEKLKEELEKKSAGGSAGG [r6_627_TrROS_Hall] | 0.963 ± 0.14 | -0.313 ± 0.19 | 0.629 ± 0.19 |
| SAGGSAGGKGKLVDEPPIRDPNNGKDVWAFIMDPDGRMEVYDPNEIEEIPLKPGQIMIFTPEDLSAGGSAGG [r6_627_TrROS] | 0.168 ± 0.34 | 0.757 ± 0.069 | 0.648 ± 0.16 |
| SAGGSAGGKISKEDLEKILEAIKEGKPITIVKVKVEKNENGEEVEKVEVIKTFTAEELKKLGIESAGGSAGG [r6_402_TrROS_Hall] | 1.61 ± 0.073 | 1.73 ± 0.14 | 1.43 ± 0.2 |
| SAGGSAGGKITPEMEKLKKEIADAIKKAFPNKDLKIEVIKIEKTKDGSVIIDIKIGDKIIRIKASAGGSAGG [r6_494_TrMRF] | 1.85 ± 0.12 | 2.58 ± 0.14 | 2.16 ± 0.19 |
| SAGGSAGGKKIKIEIIYDKENNKLYIYVVDENTKKVYRYEFNKNGKLIKVEPVKEVKPGEVIPLSAGGSAGG [r6_148_TrROS_Hall] | 2.49 ± 0.16 | 1.96 ± 0.15 | 2.32 ± 0.22 |
| SAGGSAGGKKKIKPPEVTIKIKNKDGSVFEAKITKVEYDEETKKLYLEIEIEVNGKKYKLTIELSAGGSAGG [r6_962_TrROS_Hall] | 4.49 ± 0.26 | 2.87 ± 0.16 | 4.16 ± 0.76 |
| SAGGSAGGKKKVKYYKIKEVKIEKDEDGNYTITVKVDGKTFTITIPKEKIKPGMKLKDIVIKIKSAGGSAGG [r6_255_TrROS_Hall] | 3.57 ± 0.038 | 1.91 ± 0.041 | 3.16 ± 0.11 |
| SAGGSAGGKKKYLVKITIKYVDKKTGKLVKEETITVEVSEEELEELLKKLPPGAEITKIEIYKLSAGGSAGG [r6_776_TrROS_Hall] | 3.58 ± 0.071 | 2.96 ± 0.13 | 3.4 ± 0.071 |
| SAGGSAGGKKLEELKEKLKKLKPKPELEVEIKIVMSKEEAEKLAKELEKLPNIKKVRVEILEPDSAGGSAGG [r6_284_TrROS_Hall] | -0.0934 ± 0.11 | -0.155 ± 0.069 | 0.0502 ± 0.17 |
| SAGGSAGGKKNNKPKPILVKIEIINKNGKKKVFTKEFKSLEEAKKFIEKALPKGYSAKIEIIPGSAGGSAGG [r6_289_TrMRF] | 3.36 ± 0.062 | 2.25 ± 0.2 | 3.18 ± 0.29 |
| SAGGSAGGKKPPKIKVIYIKADSPEALKKLKIKAKPGDTILIYVDGKLYRLTVIDGKIKIEELPSAGGSAGG [r6_550_TrROS_Hall] | 3.73 ± 0.065 | 2.12 ± 0.089 | 3.35 ± 0.14 |
| SAGGSAGGKKPVYEIEITTKDGSKLTIAVKEGEEVEIKITVNGKEISLEDITSIEIRPVELPEESAGGSAGG [r6_222_TrROS_Hall] | 1.84 ± 0.089 | 1.99 ± 0.16 | 1.94 ± 0.098 |
| SAGGSAGGKKTYRLEITIYNKDGKEIKKIEIEAETEEEALEAAKKLQEEAKKKGLKVEIKVEKVSAGGSAGG [r6_285_TrROS_Hall] | 4.7 ± 0.068 | 4.2 ± 0.21 | 4.72 ± 0.15 |
| SAGGSAGGKKVYPIPGATPNQFRELLDENKGTLKIYMPNGKQEEFPIKPGMEPIPGGPAWIERKSAGGSAGG [r6_304_TrROS] | -1.29 ± 0.85 | -0.834 ± 0.41 | -0.871 ± 0.36 |
| SAGGSAGGKLKINNEEIGPDKSFPLKKGKEIKVYKDYVKVFVIDPKTNKKKEYTIKLEDLKKLFSAGGSAGG [r6_940_TrMRF] | 1.39 ± 0.2 | 0.437 ± 0.073 | 1.05 ± 0.18 |
| SAGGSAGGKPDLLLEARTDLFGEEREAEVFYDPSPPVLTITLPDGTVITLPEEEVEIEKETPLISAGGSAGG [r6_185_JUSTAS] | -0.273 ± 0.065 | -0.297 ± 0.12 | -0.243 ± 0.28 |
